Experimental data taken from US20190309072A1 (CYTOMX THERAPEUTICS, published 2019).

Key:
[1] = biological target: T1, human ITGa3 on human-derived cell lines (human, UniProt P26006 33-1051); assay: FACS on FaDu cells; apparent Kd from binding curve
T1 construct: whole, on cells; also called ITGa3 on H292 cells
T1 sequence (looked up): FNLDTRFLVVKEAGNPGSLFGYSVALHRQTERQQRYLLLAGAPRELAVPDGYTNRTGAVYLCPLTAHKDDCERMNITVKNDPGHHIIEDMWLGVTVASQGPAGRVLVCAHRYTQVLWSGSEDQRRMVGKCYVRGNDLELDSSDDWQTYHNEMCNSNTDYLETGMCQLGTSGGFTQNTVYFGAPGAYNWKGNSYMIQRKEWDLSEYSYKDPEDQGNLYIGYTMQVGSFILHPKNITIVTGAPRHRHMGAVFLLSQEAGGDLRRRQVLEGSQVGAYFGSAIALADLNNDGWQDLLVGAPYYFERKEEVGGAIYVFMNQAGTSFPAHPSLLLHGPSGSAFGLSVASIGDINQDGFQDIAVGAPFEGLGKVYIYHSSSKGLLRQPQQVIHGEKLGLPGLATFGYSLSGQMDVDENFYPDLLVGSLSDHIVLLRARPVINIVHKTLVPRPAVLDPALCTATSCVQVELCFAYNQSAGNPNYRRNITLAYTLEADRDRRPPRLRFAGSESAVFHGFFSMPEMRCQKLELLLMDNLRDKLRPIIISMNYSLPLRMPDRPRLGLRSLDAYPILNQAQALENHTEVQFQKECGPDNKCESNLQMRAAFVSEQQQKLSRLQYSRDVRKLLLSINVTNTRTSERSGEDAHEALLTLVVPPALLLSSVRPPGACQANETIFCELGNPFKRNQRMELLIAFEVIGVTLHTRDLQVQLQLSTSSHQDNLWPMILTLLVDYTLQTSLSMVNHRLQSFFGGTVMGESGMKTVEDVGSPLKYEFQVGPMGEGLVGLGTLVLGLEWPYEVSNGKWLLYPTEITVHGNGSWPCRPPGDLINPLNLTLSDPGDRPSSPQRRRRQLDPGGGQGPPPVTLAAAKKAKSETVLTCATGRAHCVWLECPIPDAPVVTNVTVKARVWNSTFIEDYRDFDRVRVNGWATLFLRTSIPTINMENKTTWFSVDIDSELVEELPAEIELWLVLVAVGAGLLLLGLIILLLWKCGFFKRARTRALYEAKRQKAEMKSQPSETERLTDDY
Experimental: (§1) In this study, the binding of the antibodies of the present disclosure to the indicated cell lines were performed using a standard FACS labelling method.

[2] = biological target: T1, human ITGa3 on human-derived cell lines; assay: FACS on HT29 cells; apparent Kd from binding curve
Experimental: as §1

[3] = biological target: T1, human ITGa3 on human-derived cell lines; assay: FACS on BxPC3 cells; apparent Kd from binding curve
Experimental: as §1

[4] = biological target: T1, human ITGa3 on human-derived cell lines; assay: FACS on MDA MB231 cells; apparent Kd from binding curve
Experimental: as §1

[5] = biological target: T1, human ITGa3 on human-derived cell lines; assay: FACS on FaDu cells; shift of the ActAb Kd against the ITGa3 Ab Kd
Experimental: as §1

[6] = biological target: T1, human ITGa3 on human-derived cell lines; assay: FACS on HT29 cells; shift of the ActAb Kd against the ITGa3 Ab Kd
Experimental: as §1

[7] = biological target: T1, human ITGa3 on human-derived cell lines; assay: FACS on BxPC3 cells; shift of the ActAb Kd against the ITGa3 Ab Kd
Experimental: as §1

[8] = biological target: T1, human ITGa3 on human-derived cell lines; assay: FACS on MDA MB 231 cells (FIG. 17B); apparent Kd from binding curve
Experimental: In this study, the binding of the antibodies of the present disclosure to the indicated cell lines were performed using a standard FACS labelling method. Briefly, in FIG. 17A cells were labeled with the indicated antibodies of the present disclosure: anti-human ITGa3 antibody drug conjugate (anti-ITGa3 huVM2 Hc2/Lc1-spdb-DM4, “ITGa-DM4”) or an anti-human ITGa3 activatable antibody drug conjugate (anti-ITGA3 Hc2-570-2001-spdb-DM4, “ITGA3-570-2001-DM4”), where the anti-ITGa3 AADC was used with and without activation by a protease that recognized the substrate sequence. In FIG. 17B cells were labeled with the indicated antibodies of the present disclosure: anti-human ITGa3 antibody (anti-ITGa3 huVM2 Hc2T62G/Lc1 antibody, “ITGa3 Ab”) or an anti-human ITGa3 activatable antibody (anti-ITGA3 Hc2T62G-570-2001, “ITGA3-570-2001; anti-ITGA3 Hc2T62G-2331-3001, “ITGA3-2331-3001”) and their corresponding AADCs conjugated to vc-MMAD at the indicated concentrations and subsequently detected with an Alexa Fluor 647 labeled goat anti-human IgG secondary antibody.

[9] = biological target: T1, human ITGa3 on human-derived cell lines; assay: FACS on MDA MB231 cells; shift of the ActAb Kd against the ITGa3 Ab Kd
Experimental: as §1

[10] = biological target: T2, mouse ITGa3 on mouse-derived Renca renal carcinoma cells (mouse, UniProt Q62470 33-1053); assay: FACS on Renca cells; goat anti-human IgG Alexa Fluor 647 secondary
T2 construct: whole, on cells
T2 sequence (looked up): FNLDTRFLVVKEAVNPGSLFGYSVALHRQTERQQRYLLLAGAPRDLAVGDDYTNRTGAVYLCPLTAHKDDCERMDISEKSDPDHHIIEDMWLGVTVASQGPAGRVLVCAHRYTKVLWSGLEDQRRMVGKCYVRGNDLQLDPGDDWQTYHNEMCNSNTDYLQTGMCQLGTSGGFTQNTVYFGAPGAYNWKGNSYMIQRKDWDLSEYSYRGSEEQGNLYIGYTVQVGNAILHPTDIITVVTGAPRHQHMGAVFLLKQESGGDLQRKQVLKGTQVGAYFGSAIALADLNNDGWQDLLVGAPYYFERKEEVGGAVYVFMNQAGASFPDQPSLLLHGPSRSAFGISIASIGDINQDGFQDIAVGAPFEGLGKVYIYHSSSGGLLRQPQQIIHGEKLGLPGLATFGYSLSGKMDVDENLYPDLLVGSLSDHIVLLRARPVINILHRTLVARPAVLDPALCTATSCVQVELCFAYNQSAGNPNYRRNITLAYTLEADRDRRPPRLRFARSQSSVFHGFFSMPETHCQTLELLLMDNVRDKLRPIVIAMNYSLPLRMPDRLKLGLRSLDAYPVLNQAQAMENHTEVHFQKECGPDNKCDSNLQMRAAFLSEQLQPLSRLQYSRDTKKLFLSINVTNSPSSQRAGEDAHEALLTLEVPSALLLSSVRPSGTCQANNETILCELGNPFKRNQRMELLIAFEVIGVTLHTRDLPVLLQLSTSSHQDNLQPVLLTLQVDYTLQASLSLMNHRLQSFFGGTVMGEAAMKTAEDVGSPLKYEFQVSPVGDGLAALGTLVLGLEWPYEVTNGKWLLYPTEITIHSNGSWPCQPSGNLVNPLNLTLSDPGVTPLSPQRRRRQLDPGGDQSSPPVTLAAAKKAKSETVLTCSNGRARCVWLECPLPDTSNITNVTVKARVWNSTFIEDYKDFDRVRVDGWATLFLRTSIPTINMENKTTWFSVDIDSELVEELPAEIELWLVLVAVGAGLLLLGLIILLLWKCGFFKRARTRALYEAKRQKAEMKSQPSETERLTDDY

[11] = biological target: T1, human ITGa3 on human-derived cell lines; assay: FACS on H292 cells; goat anti-human IgG Alexa Fluor 647 secondary; used for comparison
Experimental: […], the binding of activatable anti-ITGa3 antibodies of the present disclosure comprising the VH of SEQ ID NO: 7, a VL selected from the VL of SEQ ID NO: 11 and the VL of SEQ ID NO: 12, with a masking moiety selected from the 570 masking moiety (SEQ ID NO: 22) and the 574 masking moiety (SEQ ID NO: 26), and the CM1 substrate comprising the sequence […] (SEQ ID NO: 232) to the H292 cell line was evaluated using a cell-binding FACS assay. The VM2 chimera (VH of SEQ ID NO: 1 and VL of SEQ ID NO: 2) was used for comparison. Using a standard labeling protocol for FACS, cells were labeled with anti-ITGa3 antibody or anti-ITGa3 activatable antibody of the present disclosure at the indicated concentrations, and the bound antibody was detected with a goat anti-human IgG Alexa Fluor 647 secondary antibody.

B1: anti-ITGA3 Hc2T62G-570-2001 (antibody)
heavy: not shown
light: QGQSGQGECKTRQDFEMHDCVYGGGSSGGSISSGLLSGRSDNHGGGSDIQMTQSPSSLSASVGDRVTITCSASSSISSNYLHWYQQKPGKVPKLLIYRTSNLASGVPSRFSGSGSGTDYTLTISSLQPEDVATYYCQQGSSIPRFTSGGGTKVEIKRTVAAPSVFIFPPSDEQLKSGTASVVCLLNNFYPREAKVQWKVDNALQSGNSQESVTEQDSKDSTYSLSSTLTLSKADYEKHKVYACEVTHQGLSSPVTKSFNRGEC
notes: also called ITGa3-ActAb; ITGa3 ActAb
- Kd [1]: 4.58 nM
- Kd [2]: 6.03 nM
- Kd [3]: 7.39 nM
- Kd [4]: 7.42 nM
- Apparent Masking Efficiency [5]: 14 fold
- Apparent Masking Efficiency [6]: 25 fold
- Apparent Masking Efficiency [7]: 10 fold
- Kd [8]: 18 nM
- Apparent Masking Efficiency [9]: 8 fold

B2: anti-ITGA3 Hc2T62G-570-2001 conjugated to vc-MMAD (antibody, human IgG1, kappa)
heavy: not shown
light: B1 light
modifications: vc-MMAD conjugated to the antibody; chain and residues of attachment not stated
notes: also called ITGa3 570-2001-MMAD; ITGa3-570-2001-MMAD
- Kd [8]: 17.5 nM

B3: anti-ITGa3 huVM2 Hc2T62G/Lc1 antibody (antibody, human IgG1, kappa)
heavy: not shown
light: DIQMTQSPSSLSASVGDRVTITCSASSSISSNYLHWYQQKPGKVPKLLIYRTSNLASGVPSRFSGSGSGTDYTLTISSLQPEDVATYYCQQGSSIPRFTSGGGTKVEIKRTVAAPSVFIFPPSDEQLKSGTASVVCLLNNFYPREAKVQWKVDNALQSGNSQESVTEQDSKDSTYSLSSTLTLSKADYEKHKVYACEVTHQGLSSPVTKSFNRGEC
notes: also called ITGa3 Ab; ITGA3-Ab
- Kd [1]: 0.32 nM
- Kd [2]: 0.24 nM
- Kd [3]: 0.77 nM
- Kd [4]: 0.91 nM
- binding result [10]: no binding
- Kd [8]: 0.906 nM

B4: anti-ITGa3 huVM2 Hc2T62G/Lc1 antibody conjugated to vc-MMAD (antibody, human IgG1, kappa)
heavy: not shown
light: B3 light
modifications: vc-MMAD conjugated to the antibody; chain and residues of attachment not stated
notes: Antibody drug conjugate of m29; also called ITGa3 Ab-MMAD; huVM2 Hc2T62G-MMAD ADC
- Kd [8]: 1.08 nM

B5: VM2 chimera (antibody, V domains shown)
VH: EVQLQESGAELVKPGTSVRLSCKASGYTFTEYIIHWVKQRSGQGLEWIGWFYPESGSVKYNETFKGRATLTADKSSSTVYMELSRLTSEDSAVYFCARHEERDYYGYYAMDYWGQGTSVTVSS
VL: DIVMTQTPTTLAASPGEKIIITCSASSSISSNYLHWYQQKPGFSPKLLIYRTSNLASGVPARFSGSGSGTSYSLTIGTMEAEDVATYYCQQGSSIPRFTSGSGTKLEIK
notes: Chimera of the mouse VM2 variable domains; also called VM2 chimera anti-ITGa3 antibody
- binding result [11]: binds
